Experiment: melting temperature; melt of duplexes
Details: sodium 0.0675 M; strand 1 µM

For “CGACGTGCGAAATGTGCTG+CAGCACATTACGCACGTCG (((((((((.(((((((((+))))))))).)))))))))”, the Tm was 58.6 °C.
Substance “CGACGTGCGTTATGTGCTG+CAGCACATACTGCACGTCG ((((((((..(((((((((+)))))))))..))))))))” has a Tm of 51.6 °C.
“CGACGTGCCGTATGTGCTG+CAGCACATTTAGCACGTCG ((((((((...((((((((+))))))))...))))))))” showed a Tm of 48.4 °C.
For “CGACGTGCAGCATGTGCTG+CAGCACATTGTGCACGTCG (((((((((..((((((((+))))))))..)))))))))”, the Tm was 44.8 °C.
With “CGACGTGCGCCATGTGCTG+CAGCACATCATGCACGTCG ((((((((...((((((((+))))))))...))))))))” the Tm was 47.8 °C.
With “CGACGTGCTGTATGTGCTG+CAGCACATAGCGCACGTCG ((((((((..(((((((((+)))))))))..))))))))” the Tm was 49.9 °C.
With “CGACGTGCGCAATGTGCTG+CAGCACATTGCGCACGTCG (((((((((((((((((((+)))))))))))))))))))” the Tm was 67.1 °C.
“CGACGTGCACAATGTGCTG+CAGCACATGGGGCACGTCG ((((((((.(.((((((((+)))))))).).))))))))” gave a Tm of 55.2 °C.
Substance “CGACGTGCACTATGTGCTG+CAGCACATACAGCACGTCG ((((((((..(((((((((+)))))))))..))))))))” has a Tm of 45.4 °C.
For “CGACGTGCCCCATGTGCTG+CAGCACATGAGGCACGTCG (((((((((.(((((((((+))))))))).)))))))))”, the Tm was 59.6 °C.
“CGACGTGCTTAATGTGCTG+CAGCACATCGGGCACGTCG ((((((((...((((((((+))))))))...))))))))” gave a Tm of 49.1 °C.
“CGACGTGCAATATGTGCTG+CAGCACATTTCGCACGTCG ((((((((.(.((((((((+)))))))).).))))))))” gave a Tm of 50.1 °C.
Substance “CGACGTGCGCCATGTGCTG+CAGCACATAATGCACGTCG ((((((((...((((((((+))))))))...))))))))” has a Tm of 48.6 °C.
For “CGACGTGCCCTATGTGCTG+CAGCACATGCCGCACGTCG ((((((((...((((((((+))))))))...))))))))”, the Tm was 47.7 °C.
In the case of “CGACGTGCGCGATGTGCTG+CAGCACATGGCGCACGTCG ((((((((((.((((((((+)))))))).))))))))))”, the Tm is reported as 62 °C.
With “CGACGTGCGCGATGTGCTG+CAGCACATGTGGCACGTCG ((((((((...((((((((+))))))))...))))))))” the Tm was 51.7 °C.
“CGACGTGCGCTATGTGCTG+CAGCACATGGGGCACGTCG ((((((((.(.((((((((+)))))))).).))))))))” showed a Tm of 56.7 °C.
Substance “CGACGTGCTGAATGTGCTG+CAGCACATAACGCACGTCG ((((((((...((((((((+))))))))...))))))))” has a Tm of 50 °C.
In the case of “CGACGTGCAGTATGTGCTG+CAGCACATATGGCACGTCG ((((((((..(((((((((+)))))))))..))))))))”, the Tm is reported as 52.7 °C.
Work on “CGACGTGCAGCATGTGCTG+CAGCACATGATGCACGTCG (((((((((.(((((((((+))))))))).)))))))))” yielded a Tm of 61.3 °C.
For “CGACGTGCTCGATGTGCTG+CAGCACATCCGGCACGTCG ((((((((..(((((((((+)))))))))..))))))))”, the Tm was 53.7 °C.
For “CGACGTGCTGCATGTGCTG+CAGCACATTCAGCACGTCG ((((((((((.((((((((+)))))))).))))))))))”, the Tm was 57 °C.
Substance “CGACGTGCGGAATGTGCTG+CAGCACATGCTGCACGTCG ((((((((.(.((((((((+)))))))).).))))))))” has a Tm of 54.7 °C.
“CGACGTGCATCATGTGCTG+CAGCACATTCTGCACGTCG (((((((((..((((((((+))))))))..)))))))))” gave a Tm of 50.5 °C.
Work on “CGACGTGCTGGATGTGCTG+CAGCACATCGAGCACGTCG (((((((((.(((((((((+))))))))).)))))))))” yielded a Tm of 59.3 °C.
“CGACGTGCCGTATGTGCTG+CAGCACATGGCGCACGTCG ((((((((...((((((((+))))))))...))))))))” showed a Tm of 50.3 °C.
“CGACGTGCATTATGTGCTG+CAGCACATCCTGCACGTCG (((((((((..((((((((+))))))))..)))))))))” showed a Tm of 49.9 °C.
“CGACGTGCTAGATGTGCTG+CAGCACATAGAGCACGTCG (((((((((..((((((((+))))))))..)))))))))” showed a Tm of 53.8 °C.
“CGACGTGCTTGATGTGCTG+CAGCACATTGTGCACGTCG ((((((((...((((((((+))))))))...))))))))” gave a Tm of 47.2 °C.
Work on “CGACGTGCTTGATGTGCTG+CAGCACATCCAGCACGTCG (((((((((.(((((((((+))))))))).)))))))))” yielded a Tm of 57.1 °C.
In the case of “CGACGTGCATCATGTGCTG+CAGCACATTGCGCACGTCG ((((((((...((((((((+))))))))...))))))))”, the Tm is reported as 46.9 °C.
With “CGACGTGCCCGATGTGCTG+CAGCACATACAGCACGTCG ((((((((...((((((((+))))))))...))))))))” the Tm was 49.1 °C.
For “CGACGTGCTGGATGTGCTG+CAGCACATAGCGCACGTCG ((((((((...((((((((+))))))))...))))))))”, the Tm was 49.3 °C.
In the case of “CGACGTGCCGCATGTGCTG+CAGCACATGTCGCACGTCG ((((((((..(((((((((+)))))))))..))))))))”, the Tm is reported as 54.3 °C.
Work on “CGACGTGCGACATGTGCTG+CAGCACATCGTGCACGTCG ((((((((...((((((((+))))))))...))))))))” yielded a Tm of 47.6 °C.
In the case of “CGACGTGCCTGATGTGCTG+CAGCACATCTTGCACGTCG ((((((((..(((((((((+)))))))))..))))))))”, the Tm is reported as 53.7 °C.
With “CGACGTGCGACATGTGCTG+CAGCACATCATGCACGTCG ((((((((...((((((((+))))))))...))))))))” the Tm was 49.1 °C.
In the case of “CGACGTGCATCATGTGCTG+CAGCACATAGAGCACGTCG ((((((((...((((((((+))))))))...))))))))”, the Tm is reported as 50.1 °C.
“CGACGTGCTGTATGTGCTG+CAGCACATACAGCACGTCG (((((((((((((((((((+)))))))))))))))))))” showed a Tm of 62.1 °C.
“CGACGTGCACAATGTGCTG+CAGCACATACGGCACGTCG ((((((((...((((((((+))))))))...))))))))” gave a Tm of 44.7 °C.
For “CGACGTGCATAATGTGCTG+CAGCACATTCCGCACGTCG ((((((((..(((((((((+)))))))))..))))))))”, the Tm was 50.2 °C.
Substance “CGACGTGCCCCATGTGCTG+CAGCACATTCGGCACGTCG (((((((((..((((((((+))))))))..)))))))))” has a Tm of 51.5 °C.
Work on “CGACGTGCTATATGTGCTG+CAGCACATTCTGCACGTCG ((((((((...((((((((+))))))))...))))))))” yielded a Tm of 49 °C.
With “CGACGTGCGGCATGTGCTG+CAGCACATGCTGCACGTCG ((((((((.((((((((((+)))))))))).))))))))” the Tm was 62.7 °C.
Work on “CGACGTGCATAATGTGCTG+CAGCACATGAAGCACGTCG ((((((((.(.((((((((+)))))))).).))))))))” yielded a Tm of 52.8 °C.
For “CGACGTGCGGGATGTGCTG+CAGCACATTTGGCACGTCG ((((((((...((((((((+))))))))...))))))))”, the Tm was 51.3 °C.
With “CGACGTGCTTCATGTGCTG+CAGCACATCACGCACGTCG ((((((((.(.((((((((+)))))))).).))))))))” the Tm was 47.8 °C.
“CGACGTGCGCAATGTGCTG+CAGCACATACAGCACGTCG ((((((((...((((((((+))))))))...))))))))” gave a Tm of 51.4 °C.
For “CGACGTGCTATATGTGCTG+CAGCACATCACGCACGTCG ((((((((...((((((((+))))))))...))))))))”, the Tm was 47.9 °C.
“CGACGTGCAAGATGTGCTG+CAGCACATGCTGCACGTCG (((((((((..((((((((+))))))))..)))))))))” showed a Tm of 51.1 °C.
With “CGACGTGCAGCATGTGCTG+CAGCACATCGTGCACGTCG (((((((((..((((((((+))))))))..)))))))))” the Tm was 44.1 °C.
In the case of “CGACGTGCGTGATGTGCTG+CAGCACATCCCGCACGTCG (((((((((.(((((((((+))))))))).)))))))))”, the Tm is reported as 59.4 °C.
